{
  "source": "patent US20070212390A1",
  "binders": {"B1": {"name": "VEGF-D ΔN.IISS (human VEGF-D with R204,205S point mutations and lacking the N-terminal propeptide), O43915 87-354 (ligand)", "chain": "ARQDYKDDDDKTRFAATFYDIETLKVIDEEWQRTQCSPRETCVEVASELGKSTNTFFKPPCVNVFRCGGCCNEESLICMNTSTSYISKQLFEISVPLTSVPELVPVKVANHTGCKCLPTAPRHPYSIISSSIQIPEEDRCSHSKKLCPIDMLWDSNKCKCVLQEENPLAGTEDHSHLQEPALCGPHMMFDEDRCECVCKTPCPKDLIQHPKNCSCFECKESLETCCQKHKLFHPDTCSCEDRCPFHTRPCASGKTACAKHCRFPKEKRAAQGPHSRKNP"}},
  "key": {"[1]": {"target": "chimeric receptor consisting of the extracellular domain of human VEGFR-3 and the cytoplasmic domain of the erythropoietin receptor, on Ba/F3 cells (human), P35916", "sequence (P35916 25-775 limits assumed, change not shown, form in doubt)": "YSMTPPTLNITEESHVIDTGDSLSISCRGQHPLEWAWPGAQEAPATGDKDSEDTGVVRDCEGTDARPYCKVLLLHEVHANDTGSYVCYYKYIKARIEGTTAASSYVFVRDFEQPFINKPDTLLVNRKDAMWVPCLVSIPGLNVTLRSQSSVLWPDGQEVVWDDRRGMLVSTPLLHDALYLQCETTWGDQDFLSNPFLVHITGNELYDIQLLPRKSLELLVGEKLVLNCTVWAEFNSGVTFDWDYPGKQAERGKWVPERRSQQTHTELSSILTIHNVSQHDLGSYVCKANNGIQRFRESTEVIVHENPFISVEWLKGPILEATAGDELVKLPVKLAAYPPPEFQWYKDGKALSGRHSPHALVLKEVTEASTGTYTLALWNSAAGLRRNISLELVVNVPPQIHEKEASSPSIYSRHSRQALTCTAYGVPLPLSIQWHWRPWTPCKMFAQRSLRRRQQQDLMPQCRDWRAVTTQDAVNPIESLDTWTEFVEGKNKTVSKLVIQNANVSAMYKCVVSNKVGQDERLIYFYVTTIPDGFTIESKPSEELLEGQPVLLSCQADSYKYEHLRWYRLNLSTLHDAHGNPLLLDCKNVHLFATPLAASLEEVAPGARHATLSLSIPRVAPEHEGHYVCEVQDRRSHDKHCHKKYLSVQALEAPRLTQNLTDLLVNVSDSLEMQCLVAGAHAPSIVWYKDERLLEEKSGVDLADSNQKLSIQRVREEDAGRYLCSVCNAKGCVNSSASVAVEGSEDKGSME", "assay": "cell-based or functional assay"}, "[2]": {"target": "chimeric receptor consisting of the extracellular domain of mouse VEGFR-2 and the cytoplasmic domain of the erythropoietin receptor, on Ba/F3 cells (mouse), P35918", "sequence (P35918 20-762 limits assumed, change not shown, form in doubt)": "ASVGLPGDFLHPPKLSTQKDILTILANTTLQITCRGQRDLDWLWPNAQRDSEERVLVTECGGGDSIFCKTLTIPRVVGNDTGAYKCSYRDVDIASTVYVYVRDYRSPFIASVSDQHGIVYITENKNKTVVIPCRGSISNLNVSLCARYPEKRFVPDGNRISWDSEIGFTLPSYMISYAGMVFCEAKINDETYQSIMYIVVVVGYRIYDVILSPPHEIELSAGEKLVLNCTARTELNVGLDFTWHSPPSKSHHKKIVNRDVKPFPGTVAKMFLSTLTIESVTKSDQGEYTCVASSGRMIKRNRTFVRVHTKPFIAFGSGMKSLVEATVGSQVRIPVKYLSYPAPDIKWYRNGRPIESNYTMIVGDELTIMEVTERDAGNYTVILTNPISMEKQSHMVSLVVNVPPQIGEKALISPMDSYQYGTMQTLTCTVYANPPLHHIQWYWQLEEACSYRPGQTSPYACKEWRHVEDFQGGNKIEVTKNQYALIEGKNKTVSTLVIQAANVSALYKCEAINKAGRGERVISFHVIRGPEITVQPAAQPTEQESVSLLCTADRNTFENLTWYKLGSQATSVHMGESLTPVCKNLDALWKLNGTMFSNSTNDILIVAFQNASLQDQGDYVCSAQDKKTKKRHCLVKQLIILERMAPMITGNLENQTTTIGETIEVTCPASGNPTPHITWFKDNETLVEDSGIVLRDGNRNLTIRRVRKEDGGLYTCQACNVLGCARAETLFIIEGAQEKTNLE", "assay": "cell-based or functional assay"}},
  "data": [
    {"binder": "B1", "values": [
      {"measurement": "activity in VEGFR-3 bioassay (Ba/F3 cell survival and proliferation, tritiated-thymidine incorporation)", "setting": "[1]", "result": 70, "unit": "fold"},
      {"measurement": "activity in VEGFR-2 bioassay (Ba/F3 cell survival and proliferation, tritiated-thymidine incorporation)", "setting": "[2]", "result": 70, "unit": "fold"}
    ]}
  ]
}
